# B1: sodium/iodide symporter (NIS), wild type, cerulean- or citrine-tagged [human] / itself (parent)
# chain: MEAVETGERPTFGAWDYGVFALMLLVSTGIGLWVGLARGGQRSAEDFFTGGRRLAALPVGLSLSASFMSAVQVLGVPSEAYRYGLKFLWMCLGQLLNSVLTALLFMPVFYRLGLTSTYEYLEMRFSRAVRLCGTLQYIVATMLYTGIVIYAPALILNQVTGLDIWASLLSTGIICTFYTAVGGMKAVVWTDVFQVVVMLSGFWVVLARGVMLVGGPRQVLTLAQNHSRINLMDFNPDPRSRYTFWTFVVGGTLVWLSMYGVNQAQVQRYVACRTEKQAKLALLINQVGLFLIVSSAACCGIVMFVFYTDCDPLLLGRISAPDQYMPLLVLDIFEDLPGVPGLFLACAYSGTLSTASTSINAMAAVTVEDLIKPRLRSLAPRKLVIISKGLSLIYGSACLTVAALSSLLGGGVLQGSFTVMGVISGPLLGAFILGMFLPACNTPGVLAGLGAGLALSLWVALGATLYPPSEQTMRVLPSSAARCVALSVNASGLLDPALLPANDSSRAPSSGMDASRPALADSFYAISYLYYGALGTLTTVLCGALISCLTGPTKRSTLAPGLLWWDLARQTASVAPKEEVAILDDNLVKGPEELPTGNKKPPGFLPTNEDRLFFLGQKELEGAGSWTPCVGHDGGRDQQETNL
# Variants of: B1
# Assay: FRET
# Details: with itself, n = 2, minimum of 20 cells analyzed in each n, read off a plot
"response (arbitrary units) (HeLa cells, parent: 20)","response (arbitrary units) (SW1736 cells, parent: 0)",Variant
0,-70,chain 1 D237A
120,30,chain 1 A525F
